One experiment concerns the target T1, cynomolgus monkey GPRC5D (cynomolgus monkey).
T1 construct: whole, on cells; HEK293T-cynoGPRC5D cells; also called cynoGPRC5D
As to the kind of experiment: FACS, HEK293T-cynoGPRC5D cells.

In another experiment the target is T2, mouse GPRC5D (mouse, UniProt Q9JIL6 1-344).
T2 construct: whole, on cells; HEK293T-mGPRC5D cells; also called mGPRC5D; murine GPRC5D
T2 sequence (looked up): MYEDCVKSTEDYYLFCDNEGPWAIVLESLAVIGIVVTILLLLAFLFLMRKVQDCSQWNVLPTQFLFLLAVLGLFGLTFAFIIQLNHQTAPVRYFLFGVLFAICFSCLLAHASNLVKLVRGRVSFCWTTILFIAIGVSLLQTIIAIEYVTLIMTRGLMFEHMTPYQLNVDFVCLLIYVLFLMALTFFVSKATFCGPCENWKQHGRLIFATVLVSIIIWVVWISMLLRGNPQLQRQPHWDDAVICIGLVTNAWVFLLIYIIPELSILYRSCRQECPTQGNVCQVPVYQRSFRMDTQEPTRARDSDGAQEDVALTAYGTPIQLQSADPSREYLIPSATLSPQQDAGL
As to the kind of experiment: FACS, HEK293T-mGPRC5D cells.

In a further experiment the target is T3, human GPRC5D (human, UniProt Q9NZD1 1-345).
T3 construct: whole, on cells; also called hGPRC5D; G-protein coupled receptor family C group 5 member D
T3 sequence (Q9NZD1 whole entry): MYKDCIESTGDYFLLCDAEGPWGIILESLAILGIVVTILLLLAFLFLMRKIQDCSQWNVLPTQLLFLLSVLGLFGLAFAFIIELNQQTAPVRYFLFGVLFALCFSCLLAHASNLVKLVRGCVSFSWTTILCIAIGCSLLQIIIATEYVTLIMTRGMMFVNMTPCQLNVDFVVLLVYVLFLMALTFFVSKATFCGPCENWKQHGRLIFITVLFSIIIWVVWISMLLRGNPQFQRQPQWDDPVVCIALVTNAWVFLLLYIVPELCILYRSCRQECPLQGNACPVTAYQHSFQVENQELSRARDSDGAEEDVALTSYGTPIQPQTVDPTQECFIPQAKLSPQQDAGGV
As to the kind of experiment: FACS, CHOS-hGPRC5D cells. Background: A flow cytometer gives signals particle by particle.

B1: ch101B3G3 (antibody, V domains shown)
VH: EVQLQQSGPELVKPGASMKISCKASGYSFTGYTMNWVKQSHGKNLEWIGLINPYNGGTRYNQKFKDKATLTVDKSSSTAYMELLSLTSEDSAVYYCARWLLRYAMDYWGQGTSVTVSS
VL: DIVMTQSQKFMSTSVGDRVSITCKASQNVGNAVAWYQQKPGHSPKLLISSASNRKNGVPDRFTGSGSGTDFTLTVSNMQSEDLADYFCQQYSDSSWTFGGGTKLEIK
By EC50 is commonly meant the midpoint of the concentration-response curve. For the molecule B1, the EC50 with cynomolgus monkey GPRC5D worked out at 9.2 nM; with mouse GPRC5D, 38.6 nM; in the experiment with human GPRC5D it was 4.85 nM. In addition, the Top is 68900 with cynomolgus monkey GPRC5D, 57600 with mouse GPRC5D and 3940 with human GPRC5D.

B2: ch26E2H6 (antibody, V domains shown)
VH: EVQLVESGGDLVKPGGSLKLSCAASGFTFSSYGMSWVRQTPDKRLEWVATISSGGSYTYYPDSVKGRFTISRDNAKNTLYLQMSSLKSEDTAMYYCARHATDYWGQGTTLTVSS
VL: QIVLTQSPAIMSASPGEKVTMTCSASSSVSYMHWYQQKSGTSPKRWIYDTSKLASGVPARFSGSGSGTSYSLTISSMEAEDAATYYCQQWSSNPLTFGAGTKLELK
Take B2: the results for the EC50 in the experiment with cynomolgus monkey GPRC5D, with mouse GPRC5D and with human GPRC5D were 40.4 nM, 184 nM and 3.02 nM, respectively. Further, the Top came out at 51300 in the experiment with cynomolgus monkey GPRC5D, 45700 with mouse GPRC5D and 2910 in the experiment with human GPRC5D.

B3: ch90G6H3 (antibody, V domains shown)
VH: QAYLQQSGAELVRSGASVKMSCKASGYTFTSYIMHWVKQTPGQGLEWIGYIYPGNGGTNYNQKFKDKATLSADTSSSTAYMQINSLTSEDSAVYFCARWGLRQGFAYWGQGTLVSVSA
VL: DIVMTQSQKFMSTSVGDRVSVTCKASQNVGGNVAWYQQKPGQSPKALIYSTSYRNSGVPDRFTGSGSGTDFTLTISNVQSEDLAEYFCQQYNSYPFTFGSGTKLEIR
As for B3, the EC50 in the experiment with cynomolgus monkey GPRC5D was determined as 13.6 nM; in the experiment with mouse GPRC5D, 12.3 nM; with human GPRC5D it was 8.51 nM. Also, the Top with cynomolgus monkey GPRC5D stood at 61600; with mouse GPRC5D, 55300; with human GPRC5D, 2250.

B4: ch89F11E3 (antibody, V domains shown)
VH: QVQLQQSGAELARPGASVKMSCKASGYTFTSSTIHWVKQRPGQGLAWIGYIVPSTGYTNYNQKFKDKATLTADKSSSTAYMQLTSLTSEDSAVYYCARSDGYPFGYSMAYWGQGTSVTVSS
VL: DIQMNQSPSSLSASLGDTITITCHASQNINVWLSWYHQKPGNIPKLLIYKASNLHTGVPSRFSGSGSGTGFTLTISRLQPEDIATYYCQQGQSYPFTFGSGTKLEIK
Regarding B4, the EC50 with cynomolgus monkey GPRC5D was 278 nM; with mouse GPRC5D, 14.2 nM; with human GPRC5D, 2.41 nM. In addition, the values for the Top with cynomolgus monkey GPRC5D, with mouse GPRC5D and in the experiment with human GPRC5D were 40500, 77300 and 2600, respectively.

B5: ch98A3A8 (antibody, V domains shown)
VH: EVQLQQSGPELVKPGASVKMSCKASGYTFTYYVTHWVRQKPGQGLEWIGYINPYNDGTMFNEKFKGKATLTSDKSSSTAYMEFSSLTSEDSAVFYCARGGVRRYFDVWGAGTTVTVSS
VL: DIQMTQSPSSLSASLGERVSLTCRASQDIGSNLNWLQQKPDGTIKRLIYATSSLDSGVPKRFSGSRSGSDYSLTINSLESEDFVDYYCLQYASFPYTFGGGTKLEIK
As for B5, the EC50 with cynomolgus monkey GPRC5D is 9.78 nM; with mouse GPRC5D, 69.6 nM; with human GPRC5D, 1.39 nM. In addition, the Top with cynomolgus monkey GPRC5D was 46800; in the experiment with mouse GPRC5D it was 26000; in the experiment with human GPRC5D, 2970.

B6: ch108C4C12 (antibody, V domains shown)
VH: EVQLQQSGPELVKPGASVKMSCKASGYTFTSYVIHWVKQKTGQGLEWIGYFNPYNDGTKYNEEFKGKATLTSDKSSNTAYMELNSLTSDDSAVYFCARGGVRRYFDVWGAGTTVTVSS
VL: DIQMTQSPSSLSASLGERVSLTCRASQDIGSNLNWLQQEPDGTIKRLIYATFGLDSGVPKRFSGSRSGSDYSLTISSLESEDFVDYYCQQYASFPYTFGGGTKLEIK
With B6, the EC50 with cynomolgus monkey GPRC5D was 3.87 nM; with mouse GPRC5D, 109 nM; with human GPRC5D, 0.463 nM. The Top turned out to be 39700 with cynomolgus monkey GPRC5D, 25500 in the experiment with mouse GPRC5D and 2040 with human GPRC5D.

B7: ch110B4H5 (antibody, V domains shown)
VH: EVQLQQSGPELVKPGASVKMSCKASGYTFTFYIMHWVKQKPGQGPEWIGYINPYNDGTKYNAKFKGKATLSSDRSSSTAYMELSSLTSEDSAVYYCARGGVRRYFDVWGAGTPVTVSS
VL: DIQMTQSPSSLSASLGERVSLTCRSSQDIGSNLNWLQQEPDGTIKRLIYATFSLDSGVPKRFSGSRSGSHYSLTISSLESEDFVVYYCLQYGSFPYTFGGGTKLEIK
For B7, the EC50 with cynomolgus monkey GPRC5D was determined as 4.87 nM; with mouse GPRC5D, 14.2 nM; with human GPRC5D it was 2.74 nM. Moreover, the Top with cynomolgus monkey GPRC5D stood at 27600; in the experiment with mouse GPRC5D it was 42900; in the experiment with human GPRC5D it was 1820.

B8: ch96C9E7 (antibody, V domains shown)
VH: EVQLQQSGPELVKPGASVKMSCKASGYTFTYYILHWVKQKPGQGLEWIGYFNPYNDGNKFNERFRGKATLTSDKSSSTAYMELNSLTSEDSAVYFCARGGVRRYFDVWGAGTTVTVSS
VL: DIQMTQSPSSLSASLGERVSLTCRASQDIGSNLNWLQQEPDGTIKRLISATFSLDSGVPKRFSGSRSGSDYSLTISSLESEDFVNYYCLQYASFPYTFGGGTKLEIK
Turning to B8, the EC50 in the experiment with cynomolgus monkey GPRC5D was 8.25 nM; with mouse GPRC5D, 18.5 nM; in the experiment with human GPRC5D it was 1.97 nM. In addition, the values for the Top in the experiment with cynomolgus monkey GPRC5D, in the experiment with mouse GPRC5D and in the experiment with human GPRC5D were 34300, 19200 and 2830, respectively.

B9: ch87A3G8 (antibody, V domains shown)
VH: QVQLKESGPGLVAPSQSLSITCTVSGFSLSSYSVYWVRQPPGKGLEWLGVIWAGGSTNYNSALMSRLSINKDKSKSQVFLKMNSLQTDDSAIYYCAMRWLPRGLDFWGQGTSVTVSS
VL: DIVMTQSHKFMSTSVGDRVSITCKASQDVGTAVAWYQQKPGQSPKLLIYWASTRHTGVPDRFTGSGSGTDFTLTISNVQSEDLADYFCQQYSTYYTFGGGTKLEIK
With B9, the 50% effective concentration (EC50) worked out at 9.74 nM with cynomolgus monkey GPRC5D, 15 nM with mouse GPRC5D and 2.81 nM with human GPRC5D. Moreover, the values for the Top with cynomolgus monkey GPRC5D, in the experiment with mouse GPRC5D and with human GPRC5D were 42200, 76200 and 1950, respectively.

Values taken from patent publication US20250368734A1 (ANTENGENE BIOLOGICS, published 2025).
